Values quoted from earlier work in article PMC6699087.

Target: Hsp90 (Homo sapiens) (UniProt P08238)
UniProt P08238, sequence (P08238 2-724): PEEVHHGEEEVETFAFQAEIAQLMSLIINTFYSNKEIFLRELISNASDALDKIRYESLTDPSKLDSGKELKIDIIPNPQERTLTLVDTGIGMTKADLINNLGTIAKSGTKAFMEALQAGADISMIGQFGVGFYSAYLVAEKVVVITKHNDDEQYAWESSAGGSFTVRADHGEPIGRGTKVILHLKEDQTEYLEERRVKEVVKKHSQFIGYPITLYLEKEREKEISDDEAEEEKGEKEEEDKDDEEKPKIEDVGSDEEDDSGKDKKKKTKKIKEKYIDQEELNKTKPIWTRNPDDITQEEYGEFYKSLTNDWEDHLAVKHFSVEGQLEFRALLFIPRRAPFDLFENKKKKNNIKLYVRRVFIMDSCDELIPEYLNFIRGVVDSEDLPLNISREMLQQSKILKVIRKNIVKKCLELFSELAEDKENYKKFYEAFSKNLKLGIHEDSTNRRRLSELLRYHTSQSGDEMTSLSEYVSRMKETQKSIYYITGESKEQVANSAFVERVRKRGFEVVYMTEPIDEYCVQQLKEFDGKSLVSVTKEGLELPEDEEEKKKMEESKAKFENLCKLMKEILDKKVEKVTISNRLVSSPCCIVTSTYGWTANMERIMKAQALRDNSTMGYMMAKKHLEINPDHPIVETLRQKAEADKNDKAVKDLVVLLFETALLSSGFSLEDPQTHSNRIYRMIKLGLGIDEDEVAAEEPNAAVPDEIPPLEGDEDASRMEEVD

In the case of Aha1 (from UniProt O95433), the Kd is given as 500 nM.
